Positions count from the first letter of the chain named.
Key:
Assay in all cases: ITC
yedK E105A = biological target: T1, yedK E105A (Escherichia coli (gene from BL21 …, UniProt P76318 2-222, E105A))
T1 sequence: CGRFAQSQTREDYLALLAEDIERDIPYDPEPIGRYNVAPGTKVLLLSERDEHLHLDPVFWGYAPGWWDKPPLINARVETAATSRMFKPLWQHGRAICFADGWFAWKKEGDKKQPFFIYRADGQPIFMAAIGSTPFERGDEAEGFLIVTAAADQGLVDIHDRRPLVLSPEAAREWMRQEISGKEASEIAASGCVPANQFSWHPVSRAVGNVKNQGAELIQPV

yedK R85A = biological target: T2, yedK R85A (Escherichia coli (gene from BL21 …, UniProt P76318 2-222, R85A))
T2 sequence: T1 sequence with R84A, A104E

yedK C2A = biological target: T3, yedK C2A (Escherichia coli (gene from BL21 …, UniProt P76318 2-222, C2A))
T3 sequence: T1 sequence with C1A, A104E

yedK R4A = biological target: T4, yedK R4A (Escherichia coli (gene from BL21 …, UniProt P76318 2-222, R4A))
T4 sequence: T1 sequence with R3A, A104E

yedK H160A = biological target: T5, yedK H160A (Escherichia coli (gene from BL21 …, UniProt P76318 2-222, H160A))
T5 sequence: T1 sequence with A104E, H159A

yedK K70A = biological target: T6, yedK K70A (Escherichia coli (gene from BL21 …, UniProt P76318 2-222, K70A))
T6 sequence: T1 sequence with K69A, A104E

yedK T149A = biological target: T7, yedK T149A (Escherichia coli (gene from BL21 …, UniProt P76318 2-222, T149A))
T7 sequence: T1 sequence with A104E, T148A

yedK K113A = biological target: T8, yedK K113A (Escherichia coli (gene from BL21 …, UniProt P76318 2-222, K113A))
T8 sequence: T1 sequence with A104E, K112A

With CGGTCGATTC (ssDNA) [ssDNA] the Kd (yedK E105A) was 0.12 µM, the Kd (yedK R85A) was 16.9 µM and the Kd (yedK C2A) was 7.9 µM. For the same binder, the Kd (yedK R4A) was 34.6 µM, the Kd (yedK H160A) was 1.4 µM and the Kd (yedK K70A) was 4 µM. The binding result (yedK T149A) was “no binding” and the Kd (yedK K113A) was 2.1 µM.
